The source of these data is patent publication US7105305.

The test concerns the target type B human PDGF receptor (B-hPDGF-R) on transfected CHO cells (CHO-HR5) (human) (UniProt P09619). Kind of test: whole-cell 125I-PDGF binding, 37 C for 45 min, Ficoll gradient; non-specific binding taken from CHO cells.

type B human PDGF receptor (B-hPDGF-R) on transfected CHO cells (CHO-HR5) (human), sequence (P09619 33-1106 E241D): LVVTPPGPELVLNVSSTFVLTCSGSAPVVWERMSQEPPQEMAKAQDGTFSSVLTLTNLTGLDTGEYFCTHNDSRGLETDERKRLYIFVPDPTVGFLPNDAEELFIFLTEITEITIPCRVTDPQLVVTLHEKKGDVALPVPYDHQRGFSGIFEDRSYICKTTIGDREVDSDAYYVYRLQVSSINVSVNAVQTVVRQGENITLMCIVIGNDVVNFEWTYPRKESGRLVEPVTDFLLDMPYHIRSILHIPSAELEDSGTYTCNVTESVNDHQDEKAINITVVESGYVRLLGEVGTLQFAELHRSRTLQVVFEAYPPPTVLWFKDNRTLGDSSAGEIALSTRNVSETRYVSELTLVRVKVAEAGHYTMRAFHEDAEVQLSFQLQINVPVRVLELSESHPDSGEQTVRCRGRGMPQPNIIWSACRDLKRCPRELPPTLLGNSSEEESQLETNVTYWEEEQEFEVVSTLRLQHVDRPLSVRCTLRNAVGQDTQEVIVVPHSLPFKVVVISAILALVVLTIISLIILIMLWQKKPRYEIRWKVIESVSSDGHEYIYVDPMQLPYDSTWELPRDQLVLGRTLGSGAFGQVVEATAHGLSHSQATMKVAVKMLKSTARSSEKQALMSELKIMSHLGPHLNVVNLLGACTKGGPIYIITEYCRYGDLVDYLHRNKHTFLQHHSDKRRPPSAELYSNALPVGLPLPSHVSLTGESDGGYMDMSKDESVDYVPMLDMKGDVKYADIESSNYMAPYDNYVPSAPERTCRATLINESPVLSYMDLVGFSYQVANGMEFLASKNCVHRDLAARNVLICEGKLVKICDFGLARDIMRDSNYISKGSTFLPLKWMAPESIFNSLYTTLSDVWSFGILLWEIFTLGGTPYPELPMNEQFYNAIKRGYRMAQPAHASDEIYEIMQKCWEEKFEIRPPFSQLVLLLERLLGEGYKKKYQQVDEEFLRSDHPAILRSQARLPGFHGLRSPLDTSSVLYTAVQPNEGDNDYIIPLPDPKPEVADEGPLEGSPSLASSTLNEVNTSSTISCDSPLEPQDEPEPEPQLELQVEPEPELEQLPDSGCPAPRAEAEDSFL

Consider ^125I-labeled PDGF (ligand), for which the non-specific binding as percent of the bound radioactivity worked out at 25 percent.
